Data: PMC11948038, “Evolutionary Pro‐To‐Thr Mutation in the Intrinsically Disordered Domain of ANP32 Family Members Modulates Their Target Binding Modes” (Advanced Science, 2025)

Key:
cytochrome c [1] = biological target: T1, cytochrome c (Homo sapiens, UniProt P99999); test: ITC titration of full-length ANP32A or ANP32A1-167 with reduced Cc; type: binding; conditions: low ionic strength (25 mM)
T1 construct: obtained by immunizing male rabbits with full-length recombinant Cc; made in house; host or cells: E. coli BL21 (DE3)
T1 sequence (P99999 whole entry): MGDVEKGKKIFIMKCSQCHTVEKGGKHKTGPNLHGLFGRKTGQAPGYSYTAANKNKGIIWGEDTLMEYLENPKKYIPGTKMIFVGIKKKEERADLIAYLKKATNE
Protocol: Isothermal titration calorimetry (ITC) experiments were performed using a Nano ITC Low Volume instrument (TA Instruments, USA). The reference cell was filled with distilled water. Titration experiments between reduced Cc and ANP32A or ANP32A1‐167 consisted of 17 injections of 2.91 µL of a 400 µM reduced Cc solution into the sample cell containing 50 µM ANP32A construct. Both Cc and ANP32A proteins were dialyzed against 10 mM sodium phosphate buffer pH 7.4. Assays performed at moderate ionic strength used the same experimental setup, but proteins were dialyzed against 20 mM sodium phosphate pH 7.4 with 50 mM NaCl. […] ANP32A, ANP32A230‐249 and ANP32B232‐251 titration data were analyzed using Origin 7.0 (OriginLab), employing a single‐ligand binding site model or a two‐ligand binding sites model. […] ANP32A1‐167 titration data was processed and analyzed using NanoAnalyze software (TA instruments).
ITC experiments were performed using a Nano ITC Low Volume instrument (TA Instruments, USA). […] ANP32A, ANP32A230-249 and ANP32B232-251 titration data was analyzed using Origin 7.0 (OriginLab), employing a single ligand binding site model or a two ligand binding sites model. […] ANP32A1-167 titration data were processed and analyzed using NanoAnalyze software (TA instruments).

15N-labeled Cc = test: NMR titration (1H-15N HSQC) of 15N Cc with ANP32A or ANP32A1-167; type: binding; conditions: low ionic strength; 25 °C
Protocol: NMR titrations of 30 µM ^15N reduced Cc with ^14N ANP32A constructs were followed by 1D ^1H and 2D ^1H-^15N heteronuclear single quantum correlation (HSQC) spectra on a Bruker Avance-III 600 MHz equipped with a cryoprobe at 25 °C. ^15N-labelled reduced Cc (in 10 mM sodium phosphate buffer, pH 7.4) was titrated with increasing amounts of ^14N ANP32A dialyzed against the same buffer. Reduced ^15N Cc and ^14N ANP32A1-167 construct were titrated in 5 mM sodium phosphate buffer pH 6.4. To maintain the redox state of Cc and to adjust the lock signal on the NMR spectrometer, 0.1 mM of sodium ascorbate and 10% of D2O were added, respectively. Data were acquired and processed using TopSpin NMR 3.5pl7 software (Bruker).
Line broadening and chemical-shift perturbation analysis were performed using the Sparky 3 NMR assignment tool (T.D. Goddard and D.G. Kneller, University of California San Francisco, USA). Assignment of ANP32A230-249 and ANP32B232-251 peptides was performed using NMRFAM-SPARKY software distribution (National Magnetic Resonance Facility at Madison) and further imported to CCPNMR ^[1], whereby distance restraints were calculated using its built-in module.

cytochrome c [2] = biological target: T1, cytochrome c; conditions: Cc-ANP32B, low ionic strength; ref [31]; cited from earlier work
Source text: Although both ANP32A and ANP32B interact with Cc via their C‐terminal region, there are remarkable differences in the thermodynamic parameters and binding surfaces between full‐length ANP32A and ANP32B in complex with Cc (Figure 3C,F).^[ [31] ^] […] These di ...

histone H3 = test: Coimmunoprecipitation of c-myc-ANP32A/B with histone H3; type: binding; conditions: anti-c-myc, Western blot; representative of three experiments
Protocol: HEK293T cells were transfected with a plasmid encoding ANP32A/b-c-myc. 24 h after transfection, cells were collected for lysates preparation in buffer containing 20 mM Tris-HCl pH 7.5, 100 mM NaCl, 0.5% NP40, 0.1 mM PMSF and cOmplete™. Cells were lysed by sonication and precleared by incubation with sepharose-A beads (GE Healthcare, GE17-5280-01) for 1 h at 4 °C. The lysates were then incubated with anti-c-myc (see Pull-down assays) over night at 4 °C and subsequently with sepharose-A beads (GE Healthcare, GE17-5280-01) for 1 h at room temperature with rotation. Following 6 washes with PBS, the samples were resuspended in SDS loading buffer and analyzed by western blotting.

Molecule | binding to Cc by ITC, in words (cytochrome c [1]) | chemical-shift perturbations of Cc amide signals, in words (15N-labeled Cc) | Kd (cytochrome c [2]) [µM] | –TΔS (cytochrome c [2]) [kcal/mol] | coimmunoprecipitation of histone H3, in words (histone H3)
ANP32A1‐167: ANP32A construct lacking its LCAR (protein) MEMGRRIHLELRNRTPSDVKELVLDNSRSNEGKLEGLTDEFEELEFLSTINVGLTSIANLPKLNKLKKLELSDNRVSGGLEVLAEKCPNLTHLNLSGNKIKDLSTIEPLKKLENLKSLDLFNCEVTNLNDYRENVFKLLPQLTYLDGYDRDDKEAPDSDAEGYVEGL | unable to interact with Cc even at low ionic strength | no significant chemical‐shift perturbations | – | – | –
ANP32B: acidic leucine‐rich nuclear phosphoprotein 32 B, histone chaperone, paralog of ANP32A (protein, UniProt Q92688 1-251, looked up) Acidic leucine-rich nuclear …: MDMKRRIHLELRNRTPAAVRELVLDNCKSNDGKIEGLTAEFVNLEFLSLINVGLISVSNLPKLPKLKKLELSENRIFGGLDMLAEKLPNLTHLNLSGNKLKDISTLEPLKKLECLKSLDLFNCEVTNLNDYRESVFKLLPQLTYLDGYDREDQEAPDSDAEVDGVDEEEEDEEGEDEEDEDDEDGEEEEFDEEDDEDEDVEGDEDDDEVSEEEEEFGLDEEDEDEDEDEEEEEGGKGEKRKRETDDEGEDD | – | – | ~9.5 | 3.9 | H3 binds both ANP32 proteins in a similar manner
